Measurements: patent US20180185504A1 (Regeneron, published 2018)

T1: human PRLR on cells (endogenous on T47D, T47D#11, MCF7); introduced in HEK293/hPRLR/STAT5-Luc, 293/hPRLR, … (human, UniProt P16471 25-622)
T1 construct: no tag is stated for these lines; also called prolactin receptor
T1 sequence: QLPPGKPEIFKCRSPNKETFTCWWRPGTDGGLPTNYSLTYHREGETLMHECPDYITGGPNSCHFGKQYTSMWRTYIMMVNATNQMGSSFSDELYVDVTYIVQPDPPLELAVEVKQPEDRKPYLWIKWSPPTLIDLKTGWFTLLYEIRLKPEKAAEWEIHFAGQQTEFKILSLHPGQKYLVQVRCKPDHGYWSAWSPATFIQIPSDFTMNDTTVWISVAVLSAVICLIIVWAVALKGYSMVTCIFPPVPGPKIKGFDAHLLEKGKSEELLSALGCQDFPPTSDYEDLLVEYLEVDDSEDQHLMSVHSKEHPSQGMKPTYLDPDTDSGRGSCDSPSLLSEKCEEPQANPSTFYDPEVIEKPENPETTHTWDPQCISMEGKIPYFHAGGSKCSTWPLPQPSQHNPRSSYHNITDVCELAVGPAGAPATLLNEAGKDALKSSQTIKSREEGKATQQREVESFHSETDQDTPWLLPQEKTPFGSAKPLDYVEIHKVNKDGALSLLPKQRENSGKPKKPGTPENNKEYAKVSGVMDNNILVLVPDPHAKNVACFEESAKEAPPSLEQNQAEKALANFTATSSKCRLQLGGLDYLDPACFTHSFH

T2: human PRLR construct with an HA tag on HEK293/hPRLR cells (human, UniProt P16471 25-622)
T2 sequence: T1 sequence

T3: monkey macaca fascicularis PRLR construct with an HA tag on HEK293/mfPRLR cells (macaca fascicularis, UniProt A0A2K5WXK1 25-619)
T3 construct: stably transfected into HEK293
T3 sequence: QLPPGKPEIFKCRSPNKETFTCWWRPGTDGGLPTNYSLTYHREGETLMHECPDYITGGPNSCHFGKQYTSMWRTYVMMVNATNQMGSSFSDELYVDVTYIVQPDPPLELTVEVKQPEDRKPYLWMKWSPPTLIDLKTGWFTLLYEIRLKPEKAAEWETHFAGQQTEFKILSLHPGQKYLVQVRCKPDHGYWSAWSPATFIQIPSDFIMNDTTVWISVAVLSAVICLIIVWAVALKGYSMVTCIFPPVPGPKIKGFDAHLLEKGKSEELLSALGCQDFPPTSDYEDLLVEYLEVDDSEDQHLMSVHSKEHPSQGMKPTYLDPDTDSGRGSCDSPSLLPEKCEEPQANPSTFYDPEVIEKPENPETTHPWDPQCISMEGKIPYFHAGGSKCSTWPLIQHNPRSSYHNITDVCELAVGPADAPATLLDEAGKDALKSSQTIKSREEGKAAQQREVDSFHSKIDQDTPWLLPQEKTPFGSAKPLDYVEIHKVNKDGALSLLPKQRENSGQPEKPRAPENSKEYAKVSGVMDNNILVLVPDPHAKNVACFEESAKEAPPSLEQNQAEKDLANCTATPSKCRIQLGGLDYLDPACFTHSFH

T4: hPRLR.mFc (soluble dimeric human PRLR) (human)
T4 construct: dimeric PRLR construct
T4 chain: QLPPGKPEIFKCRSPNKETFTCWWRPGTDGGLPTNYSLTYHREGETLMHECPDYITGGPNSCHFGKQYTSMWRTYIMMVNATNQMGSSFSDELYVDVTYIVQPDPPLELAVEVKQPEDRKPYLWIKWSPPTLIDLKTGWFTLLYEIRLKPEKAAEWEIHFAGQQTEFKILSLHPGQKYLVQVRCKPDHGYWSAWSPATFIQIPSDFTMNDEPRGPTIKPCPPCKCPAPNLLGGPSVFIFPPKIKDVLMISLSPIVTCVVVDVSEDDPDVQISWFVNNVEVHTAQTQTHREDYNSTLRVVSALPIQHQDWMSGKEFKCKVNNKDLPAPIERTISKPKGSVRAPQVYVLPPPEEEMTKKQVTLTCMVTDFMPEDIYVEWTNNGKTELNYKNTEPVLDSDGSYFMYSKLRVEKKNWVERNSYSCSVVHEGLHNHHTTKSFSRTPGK

B1: H1H6795P (antibody, human IgG1, V domains shown)
VH: QVQLVQSGAEVKKPGASVKVSCKASGYTFGTSGITWVRQAPGQGLEWMGWSSAYNGKTDYAQKFQDRVTMTTDTSTTTGYMEMRSLTSDDTAVYYCTTVVRRPFDFWGQGTLVTVSS
VL: DIQMTQSPSSLSASVGDRVTITCRASQDINNFLAWFQQKPGKAPKSLIYAASSLQSGVPSKFSGGGSGTDFALTISSLQPEDFATYYCQQYSSYPITFGQGTRLEIK
notes: human IgG1 Fc (H1H)
B2: H1H6953N (antibody, human IgG1, V domains shown)
VH: EVQLLESGGGLVQPGGTLRLSCAASGFTFSAYAMSWVRQAPGKGLEWVSSINVRAGDTYYADSVKGRFTISRDNSKNTLFLLMNSLRAEDTAAYYCAKARYSSNWGFDFWGQGTLVTVSS
VL: DIVMTQSPDSLTVSLGARTTINCQSSQTILHSSNNHNYLAWYQQKPGLPPKLLIYWSSTRESGVPDRFSGSGSGTDFTLTISSLQAEDVAIYYCQQYSNTPYTFGQGTKLEIN
notes: also called H1M6953N
B3: H1H6792P (antibody, human IgG1, V domains shown)
VH: EVQLVESGGGLVQPGRSLRLSCAASGFTLDDHAVHWVRQAPGKGLEWVSGISWNSVYIDYADSVKGRFTIFRDNAKNSLYLQMNSLRAEDTAFYYCARDIEGARDYWGQGTLVTVSS
VL: DIQMTQSPSSLSASVGDRVTITCRASQGIRNDLGWYQQKPGKAPKRLIYAASSLQSGVPSRFSGSGYGTEFTLTISSLQPEDFAPYYCLQHNSYPLTFGGGTKVEIK
notes: human IgG1 Fc (H1H)
B4: H1H6807P (antibody, V domains shown)
VH: QVQLVESGGGVVQPGRSLRLSCAASGFTFSDYNMHWVRQAPGKGLEWVAVIWYDGSNKHYADSVKGRFTISRDNSKNTLYLQMNSLRAEDTAVYYCARDGFTIFGMVLDYWGQGTLVTVSS
VL: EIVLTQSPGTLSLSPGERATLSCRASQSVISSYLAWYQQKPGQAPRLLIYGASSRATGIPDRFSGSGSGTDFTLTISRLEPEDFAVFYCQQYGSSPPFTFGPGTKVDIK
notes: human IgG1 Fc (H1H)
B5: H1H6804P (antibody, human IgG1, V domains shown)
VH: QVTLKESGPVLVKPTQTLSLTCTVSGFSLSDAGMGVSWIRQPPGKALEWLAHIFSNDGKSYSTSLKSRLTISKDTSKRQVVLTMTNMDPVDTATYYCARIRTGTYSLYLDYWGQGTLVTVSS
VL: DIQMTQSPSSLSASVGDRVTITCRASQSINSYLNWYQQKPGKAPKLLLYFASSLQSGVPSRFSGSGSGTDFTLTISSLQPEDFASYYCQESYSTPWTFGQGTKVEIK
notes: human IgG1 Fc (H1H)
B6: H1H6790P (antibody, human IgG1, V domains shown)
VH: EVQLVESGGGLVQPGGSLRLSCAASGFTFSSYAMTWVRQAPGKGLEWVSAITGSVGNTYYADSVKGRFTISRDNSKNTLYLQMNSLGAEDTAEYYCAKGAGMTTNWYLDLWGRGTLVTVSS
VL: DIVMTQSPDSLAVSLGARATINCKSSQSVLYSSNNQNYLTWYQQKPGQPPKLLIKWASTRESGVPDRFSGSGSGTDFTLTISSLQAEDVAVYYCQQYASSPYTFGQGTKLEIK
notes: human IgG1 Fc (H1H)
B7: H1H6797P (antibody, human IgG1, V domains shown)
VH: EVQLVESGGGLVQPGGSLRLSCIVSGFTFSGSWMSWVRQLPGKGLEWVANIKEDGSDSYYVDSVEGRFTISRDNAKSSLYLQMNSLRVDDTAVYFCARARTVPLHYWGQGTLVTVSS
VL: DIQMTQSPSTLSASVGDRVTITCRASQSINIWLAWYQQKPGKAPKLLIYRASYLESGVPSSFAGGGSGTEFTLTISSLQPDDFGTYYCQHYNSYPFTFGQGTKLEIK
notes: human IgG1 Fc (H1H)

target: T1, human PRLR on cells (endogenous on …); assay: FACS on T47D cells

FACS Cell Binding (Fold Above Background) [fold] | Binder
34 | B1
40 | B2
37 | B3
34 | B4
34 | B5
34 | B6
38 | B7

target: T1, human PRLR on cells (endogenous on …); assay: cell-based or functional assay

% Internalization relative to Control I (T47D cells, imaging) [%] | Binder
151 | B1
154 | B2
156 | B3
147 | B4
139 | B5
147 | B6
145 | B7

target: T1, human PRLR on cells (endogenous on …); assay: cell-based or functional assay; remark: another data set of the same source

Percent Blocking at 100 nM Antibody (STAT5-Luc reporter) [%] | IC50 of Blocking 5 nM PRL [M] (STAT5-Luc reporter, HEK293/hPRLR/STAT5-Luc cells) | Binder
0 |  | B1
100 | 1.05e-10 | B2
100 | 5.7e-10 | B3
100 | 6e-10 | B4
100 | 7.89e-09 | B5
100 | 2.06e-10 | B6
0 |  | B7

target: T2, human PRLR construct with an HA tag on …; assay: FACS on HEK293/hPRLR cells

FACS Cell Binding (Fold Above Background) [fold] | Binder
1 | B1
37 | B2
37 | B3
32 | B4
1 | B5
37 | B6
1 | B7

target: T3, monkey macaca fascicularis PRLR …; assay: FACS on HEK293/mfPRLR cells

FACS Cell Binding (Fold Above Background) [fold] | Binder
22 | B1
29 | B2
28 | B3
27 | B4
29 | B5
24 | B6
25 | B7

Target: T4, hPRLR.mFc (soluble dimeric human PRLR)
Assay: SPR (Biacore), antibody capture, 37 C
Description: Measurements were conducted on a T200 Biacore instrument. Kinetic association (kₐ) and dissociation (kd) rate constants were determined by processing and fitting the data to a 1:1 binding model using Scrubber 2.0 curve fitting software.

Kd [pM] | T 1/2 [h] | koff [s⁻¹] | kon [M⁻¹ s⁻¹] | Binder
40.2 | 2.48 | 7.77e-05 | 1.94e+06 | B1
116 | 1.13 | 0.00017 | 1.47e+06 | B2
352 | 1.1 | 0.000176 | 499000 | B3
90 | 1.75 | 0.00011 | 1.22e+06 | B4
369 | 0.933 | 0.000205 | 554000 | B5
306 | 0.967 | 0.000198 | 646000 | B6
69.1 | 1.55 | 0.000125 | 1.8e+06 | B7

target: T1, human PRLR on cells (endogenous on …); assay: imaging of alexa488 intensity on T47D cells
In short: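 T47D cells labelled on ice with alexa488 anti-hFc Fab secondary for 30 min, then held 1 h at 37 °C in PBS+2% FBS or at 4 °C. After fixation and DRAQ5 staining, whole-cell (binding) and intracellular-vesicle (internalization) alexa488 intensities at 37 °C quantified by imaging.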

% Total Binding relative to Control I [%] | Binder
123 | B1
164 | B2
111 | B3
153 | B4
150 | B5
123 | B6
151 | B7
